Blank lines part the entries; values can stand above or below the molecule they belong to.
Assays:
[1] = molecular target: S. cerevisiae Smc1 hinge protein (S480-E681), wild type (S. cerevisiae) (UniProt P32908); experiment: ITC
[2] = molecular target: S. cerevisiae Smc1DD hinge protein (S480-E681; K554D, K661D) (S. cerevisiae) (UniProt P32908); experiment: ITC
[3] = molecular target: S. cerevisiae Smc3-FLAG hinge protein (S. cerevisiae); experiment: pull-down

Kd [1]: 22 nM
Molecule: S. cerevisiae Smc3 hinge protein (T495-L695), wild type (domain or fragment)

Kd [1]: 24 nM | Kd [2]: 29 nM | reduction in dH against wild-type Smc1/Smc3 [2]: 4 kcal/mol
Molecule: S. cerevisiae Smc3AAA hinge protein (T495-L695; R665A, K668A, R669A) (domain or fragment)

half time [3]: 30 min | half-life of the hinge dimer [3]: 15 to 30 min
B1: S. cerevisiae Smc1 hinge protein (S480-E681), wild type (domain or fragment)
chain: SANNQEYDLNFKLRETLVKIDDLSANQRETMKERKLRENIAMLKRFFPGVKGLVHDLCHPKKEKYGLAVSTILGKNFDSVIVENLTVAQECIAFLKKQRAGTASFIPLDTIETELPTLSLPDSQDYILSINAIDYEPEYEKAMQYVCGDSIICNTLNIAKDLKWKKGIRGKLVTIEGALIHKAGLMTGGISGDANNRWDKEE

— article PMC3025461
